Entries after “also recorded” stand apart in the source; their conditions may differ.
Key:
[1] = Tissue-permeability / systemic delivery of FITC-labeled SOCS3 proteins after intraperitoneal injection; assay type: in vivo, ICR mice
Procedure: To further investigate in vivo delivery of SOCS3 recombinant proteins, ICR mice (Doo-Yeol Biotech Co. Ltd., Seoul, Korea) were intraperitoneal (IP) injected with 600 μg/head of 10 μM FITC (Fluorescein isothiocyanate, SIGMA, USA)-labeled SOCS3 proteins and sacrificed after 2 hrs. From the mice, the liver, kidney, spleen, lung, heart, and brain were removed and washed with PBS, and then placed on a dry ice, and embedded with an O.C.T. compound (Sakura). After cryosectioning at 20 μm, tissue distributions of fluorescence-labeled-SOCS3 proteins in different organs was analyzed by fluorescence microscopy (Carl Zeiss, Gottingen, Germany)(FIG. 22).
The liver tissue permeability was analyzed by the method described in Example 7-2.

[2] = tested on: STAT1; assay: Inhibition of IFN-γ-induced STAT phosphorylation in PANC-1 cells (western blot), STAT1; assay type: cell-based; details: PANC-1, 10 ng/ml IFN-γ 15 min, 10 μM protein 2 hrs
Procedure: (§1) PANC-1 Cells (KCLB, Seoul, South Korea) were treated with 10 ng/ml IFN-γ (R&D systems, Abingdon, UK) for 15 min and treated with either DMEM (vehicle) or 10 μM aMTD/SD-fused SOCS3 recombinant proteins for 2 hrs. The cells were lysed in RIPA lysis buffer (Biosesang, Seongnam, Korea) containing proteinase inhibitor cocktail (Roche, Indianapolis, Ind., USA), incubated for 15 min at 4° C., and centrifuged at 13,000 rpm for 10 min at 4° C. Equal amounts of lysates were separated on 10% SDS-PAGE gels and transferred to a nitrocellulose membrane. The membranes were blocked using 5% skim milk in TBST and for western blot analysis incubated with the following antibodies: anti-phospho-STAT1 (Cell Signaling Technology, USA) and anti-phospho-STAT3 (Cell Signaling Technology, USA), then HRP conjugated anti-rabbit secondary antibody (Santacruz).

[3] = tested on: STAT3; assay: Inhibition of IFN-γ-induced STAT phosphorylation in PANC-1 cells (western blot), STAT3; assay type: cell-based
Procedure: as §1
as §1, with “(vehicle) or 1, 5, 10 μM” for “(vehicle) or 10 μM”, “following antibodies: anti-phospho-STAT3 (Cell” for “following antibodies: anti-phospho-STAT1 (Cell Signaling Technology, USA) and anti-phospho-STAT3 (Cell”

[4] = tested on: PANC-1 cells; assay: Apoptotic cell analysis by TUNEL assay in pancreatic carcinoma cells; assay type: cell-based; details: PANC-1, 10 uM
Procedure: PANC-1 cells (pancreatic carcinoma cell line) were seeded in a 16-well chamber slide at a density of 5×10^3 cells/well, and then treated with 10 uM of aMTD/SD-fused SOCS3 for 24 hours. Apoptotic cells were analyzed using terminal dUTP nick-end labeling (TUNEL) assay with In Situ Cell Death Detection kit TMR red (Roche, 4056 Basel, Switzerland). Cells were treated with either 10 μM SOCS3 recombinant protein or buffer alone for 16 hrs with 2% fetal bovine serum (Hyclone, Logan, Utah, USA). Treated cells were washed with cold PBS two times, fixed in 4% paraformaldehyde (PFA, Junsei, Tokyo, Japan) for 1 hr at room temperature, and incubated in 0.1% Triton X-100 for 2 min on the ice. Cells were washed with cold PBS twice, and treated TUNEL reaction mixture for 1 hr at 37° C. in dark, washed cold PBS three times and observed by fluorescence microscopy (Nikon, Tokyo, Japan).

[5] = tested on: Hep3B2.1-7 hepatocellular carcinoma cells; assay: Anti-proliferative activity, CellTiter-Glo, hepatocellular carcinoma cells; assay type: cell-based, human; details: 10 μM, 96 hrs, compared to vehicle
Procedure: Cells originated from human hepatocellular carcinoma cell (Hep3B, HepG2, Huh-7, SK-Hep1), human normal cells (HEK293, HaCaT, Chang liver cell) and mouse fibroblast (NIH3T3) were purchased from ATCC (Manassas, Va., USA) and KCLB (Seoul, Korea). All the cells were maintained as recommended by the supplier. These cells (3×10^3/well) were seeded in 96 well plates. The next day, cells were treated with DMEM (vehicle) or 10 μM recombinant SOCS3 proteins for 96 hrs in the presence of serum (2%). Proteins were replaced daily. Cell growth and survival were evaluated with the CellTiter-Glo Cell Viability Assay (Promega, Madison, Wis.). Measurements using a Luminometer (Turner Designs, Sunnyvale, Calif.) were conducted following the manufacturer's protocol.

[6] = tested on: Bcl-2, NF-κB (p-p65), cleaved caspase-3 in Hep3B cells; assay: Immunoblotting of apoptosis-related proteins; assay type: cell-based, human; details: 10 μM, 24 hr
Procedure: (§2) Cells were treated for 24 hr with 10 μM HS3B or HM165S3B proteins, lysed in RIPA lysis buffer containing proteinase inhibitor cocktail, incubated for 15 min at 4° C., and centrifuged at 13,000 rpm for 10 min at 4° C. Equal amounts of lysates were separated on 15% SDS-PAGE gels and transferred to a nitrocellulose membrane. The membranes were blocked using 5% skim milk or 5% Albumin in TBST and incubated with the following antibodies: anti-Bcl-2 (Santa Cruz biotechnology), anti-Cleaved Caspase 3 (Cell Signaling Technology), anti-phospho-p65 and anti-p65 (Cell Signaling Technology), then HRP conjugated anti-mouse or anti-rabbit secondary antibody. The expression of each protein was determined by immunoblotting with indicated antibodies. An antibody against β-actin was used as a loading control.

[7] = tested on: Bcl-2, NF-κB (p-p65), cleaved caspase-3 in HepG2 cells; assay: Immunoblotting of apoptosis-related proteins; assay type: cell-based, human; details: 10 μM, 24 hr
Procedure: as §2

[8] = tested on: Hep3B2.1-7 tumor; assay: Anti-tumor activity in cell-derived xenograft model; assay type: in vivo, Balb/c nu/nu mice; details: IV 600 μg/head for 21 days
Procedure: Female Balb/c^nu/nu mice (5-week-old, Doo-Yeol Biotech Co. Ltd. Korea) were subcutaneously implanted with Hep3B2.1-7 tumor block (1 mm^3) into the left back side of the mouse. […] Tumor size was monitored by measuring the longest (length) and shortest dimensions (width) once a day with a dial caliper, and tumor volume was calculated as width2×length×0.5.

B1: HM165S3B: His-tagged recombinant protein of aMTD165, human SOCS3 and solubilization domain B; prototype improved cell-permeable SOCS3 (protein)
chain: MGSSHHHHHHSSGLVPRGSHMALAVPVALAIVPVTHSKFPAAGMETSRPLDTSLRLKTFSSKSEYQLVVNAVRKLQESGFYWSAVTGGEANLLLSAEPAGTFLIRDSSDQRHFFTLSVKTQSGTKNLRIQCEGGSFSLQSDPRSTQPVPRFDCVLKLVHHYMETPPPGAPSFPSPPTEPSSEVPEQPSAQPLPGSPPRRAYYIYSGGEKIPLVLSRPLSSNVATLQHLCRKTVNGHLDSYEKVTQLPGPIREFLDQYDAPLGSMAEQSDKDVKYYTLEEIQKHKDSKSTWVILHHKVYDLTKFLEEHPGGEEVLGEQAGGDATENFEDVGHSTDARELSKTYIIGELHPDDRSKIAKPSETL
modifications: Amino acid sequence of HM165S3B
In the case of B1, the “tissue distribution / systemic delivery” value ([1]; IP 600 μg/head FITC-labeled protein, sacrificed after 2 hrs, liver, kidney, spleen, lung, heart, brain) is reported as “distributed to a variety of tissues (liver, kidney, spleen, lung, heart and, to a lesser extent, brain); also recorded: showed the highest systemic delivery of SOCS3 protein to the tissues; also recorded: exhibited superior cell-permeability”, the “systemic delivery to liver” value ([1]; intraperitoneal injection) is reported as “enhanced the systemic delivery to liver” and the “IFN-γ-induced phosphorylation of STAT1” value [2] is reported as “suppressed IFN-γ-induced phosphorylation of STAT1 and STAT3”. For the same molecule, the “IFN-γ-induced phosphorylation of STAT3” value ([3]; PANC-1, 10 ng/ml IFN-γ 15 min, 10 μM protein 2 hrs) was “suppressed IFN-γ-induced phosphorylation of STAT1 and STAT3”, the “IFN-γ-induced phosphorylation of STAT3” value ([3]; PANC-1, 10 ng/ml IFN-γ 15 min, 1, 5, 10 μM protein 2 hrs) was “suppressed IFN-γ-induced phosphorylation of STAT3 in dose dependent manner” and the “induction of cell death (TUNEL)” value [4] was “induced death of the largest number of cancer cells”. The “cytotoxicity to Hep3B2.1-7 cells” value [5] was “over 80%”, the “expression of Bcl-2, Hep3B” value [6] was “dramatically reduced” and the “expression of NF-κB (p-p65), Hep3B” value [6] was “dramatically reduced”. The “level of cleaved caspase-3, Hep3B” value [6] was “increased”, the “expression of Bcl-2, HepG2” value [7] was “dramatically reduced” and the “expression of NF-κB (p-p65), HepG2” value [7] was “dramatically reduced”. The “level of cleaved caspase-3, HepG2” value [7] was “increased”, the “tumor growth inhibition at day 21” value [8] was 80% and the “tumor growth inhibition at day 35” value ([8]; 2 weeks after termination) was 70%.
